In article PMC7016264, “Redox requirements for ubiquitin-like urmylation of Ahp1, a 2-Cys peroxiredoxin from yeast” (Redox Biology, 2020):

B1: His-tagged Ahp1, wild-type (recombinant) [S. cerevisiae] / itself (parent)
chain: MSDLVNKKFPAGDYKFQYIAISQSDADSESCKMPQTVEWSKLISENKKVIITGAPAAFSPTCTVSHIPGYINYLDELVKEKEVDQVIVVTVDNPFANQAWAKSLGVKDTTHIKFASDPGCAFTKSIGFELAVGDGVYWSGRWAMVVENGIVTYAAKETNPGTDVTVSSVESVLAHL

Variants of: B1
Test: SEC-MALS
Settings: with itself
For MSDLVNKKFPAGDYKFQYIAISQSDADSESCKMPQTVEWSKLISENKKVIITGAPAAASPTCTVSHIPGYINYLDELVKEKEVDQVIVVTVDNPFANQAWAKSLGVKDTTHIKFASDPGCAFTKSIGFELAVGDGVYWSGRWAMVVENGIVTYAAKETNPGTDVTVSSVESVLAHL [chain 1 F58A], the screen value was 22.8 kDa.
For MSDLVNKKFPAGDYKFQYIAISQSDADSESCKMPQTVEWSKLISENKKVIITGAPAAFSPTCTVSHIPGYINYLDELVKEKEVDQVIVVTVDNPAANQAWAKSLGVKDTTHIKFASDPGCAFTKSIGFELAVGDGVYWSGRWAMVVENGIVTYAAKETNPGTDVTVSSVESVLAHL [chain 1 F95A], the screen value was 31.6 kDa.
MSDLVNKKFPAGDYKFQYIAISQSDADSESCKMPQTVEWSKLISENKKVIITGAPAAASPTCTVSHIPGYINYLDELVKEKEVDQVIVVTVDNPAANQAWAKSLGVKDTTHIKFASDPGCAFTKSIGFELAVGDGVYWSGRWAMVVENGIVTYAAKETNPGTDVTVSSVESVLAHL [chain 1 F58A F95A] was tested, and the screen value was 20.4 kDa.
